Laboratory results: US20100086540A1

What was measured:
[1] = target: isolated domain III of sEGFR (sEGFRd3) (UniProt P00533); experiment: SPR (BIAcore 3000), sEGFRd3 passed over immobilized Fab11F8, equilibrium analysis
[2] = target: soluble extracellular domain of EGFR (sEGFR) (UniProt P00533); experiment: SPR competition: Fab11F8 added to 600 nM sEGFR, passed over immobilized EGF
[3] = target: soluble extracellular domain of EGFR (sEGFR) (UniProt P00533); experiment: SPR (BIAcore 3000), sEGFR passed over immobilized Fab11F8, equilibrium response, one-site Langmuir fit

Chain of antibody 11F8 Fab fragment (VH): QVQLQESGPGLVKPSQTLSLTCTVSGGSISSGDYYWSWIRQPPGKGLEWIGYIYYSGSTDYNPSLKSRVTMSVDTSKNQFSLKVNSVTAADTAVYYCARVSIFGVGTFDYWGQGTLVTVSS
Chain of antibody 11F8 Fab fragment (VL): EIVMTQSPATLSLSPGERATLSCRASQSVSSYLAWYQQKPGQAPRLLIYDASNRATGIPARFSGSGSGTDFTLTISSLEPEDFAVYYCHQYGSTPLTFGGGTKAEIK

- Kd [1]: 1 nM
- IC50 [2]: 100 nM
- Kd [3]: 3.3 nM
Substance: antibody 11F8 Fab fragment
